We go through eleven molecules from PMC314469, “Protein Interaction Networks by Proteome Peptide Scanning” (PLoS Biology, 2004).

To fix the notation:
T1: Rvs167 SH3 (RV167_YEAST), P39743
T1 chain: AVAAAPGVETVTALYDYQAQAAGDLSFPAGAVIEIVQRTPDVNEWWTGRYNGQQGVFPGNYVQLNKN

T2: Boi2 SH3 (BOI2_YEAST), P39969
T2 chain: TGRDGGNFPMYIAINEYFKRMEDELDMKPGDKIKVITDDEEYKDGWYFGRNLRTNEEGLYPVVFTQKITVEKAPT

T3: Boi1 SH3 (BOI1_YEAST), P38041
T3 chain: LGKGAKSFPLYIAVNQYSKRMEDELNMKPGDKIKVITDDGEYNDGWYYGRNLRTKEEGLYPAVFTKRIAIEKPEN

T4: Yhr016c SH3 (YSC84_YEAST), P32793
T4 chain: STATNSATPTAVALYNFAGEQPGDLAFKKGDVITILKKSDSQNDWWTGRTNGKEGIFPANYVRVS

T5: Myo5 SH3 (MYO5_YEAST), Q04439
T5 chain: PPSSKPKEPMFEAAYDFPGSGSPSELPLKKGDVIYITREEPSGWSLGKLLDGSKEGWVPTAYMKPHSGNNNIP

T6: Yfr024 SH3 (LSB3_YEAST), P43603
T6 chain: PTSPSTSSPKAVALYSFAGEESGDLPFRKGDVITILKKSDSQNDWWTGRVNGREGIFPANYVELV

B1: YBL005W-B 1591-1604 (peptide)
chain: LIWHKSKPVKPTNK
B2: YOL125W 162-175 (peptide)
chain: LMSLKRFPQLPSNT
B3: YBL101W-B 1606-1619 (peptide)
chain: LIWHKNKPTKPDNK
B4: YER105C 312-325 (peptide)
chain: LLPTKLIPSIPGGK
B5: YAR002W 346-359 (peptide)
chain: LNATKISPSAPSKD
B6: YGL131C 1018-1031 (peptide)
chain: LKHTKNKPKNPDTA
B7: YIL129C 688-701 (peptide)
chain: LLVTKERPRFPEDD
B8: YIL047C 206-219 (peptide)
chain: LKDNRLLPSWPKRG
B9: YMR179W 684-697 (peptide)
chain: LKKQKAIPSSPSGM
B10: YBR055C 407-420 (peptide)
chain: LLEERNNPDIPVDK
B11: YBR239C 260-273 (peptide)
chain: LNFKRLLPRDPSEK

One test has as its target T1, Rvs167 SH3 (RV167_YEAST), P39743. The test can be described thus: SPOT array.
In the case of B1, the normalised SPOT signal, Boehringer light units (BLU); mean over the file's lines of this peptide is 71.9.
Take B2: the normalised SPOT signal, Boehringer light units (BLU); mean over the file's lines of this peptide stood at 1340.
On to B3, for which the normalised SPOT signal, Boehringer light units (BLU); mean over the file's lines of this peptide worked out at 85.3.
In the case of B4, the normalised SPOT signal, Boehringer light units (BLU); mean over the file's lines of this peptide was found to be 17.2.
The molecule B5 registered a normalised SPOT signal, Boehringer light units (BLU); mean over the file's lines of this peptide of 29.4.
B6 returned a normalised SPOT signal, Boehringer light units (BLU); mean over the file's lines of this peptide of 39.5.
B7 yielded a normalised SPOT signal, Boehringer light units (BLU); mean over the file's lines of this peptide of 16.4.
B8 returned a normalised SPOT signal, Boehringer light units (BLU); mean over the file's lines of this peptide of 144.
For the molecule B9, the normalised SPOT signal, Boehringer light units (BLU); mean over the file's lines of this peptide was found to be 35.2.
On to B10, for which the normalised SPOT signal, Boehringer light units (BLU); mean over the file's lines of this peptide is 38.3.
With B11, the normalised SPOT signal, Boehringer light units (BLU); mean over the file's lines of this peptide was found to be 1630.

The target in a further test is T2, Boi2 SH3 (BOI2_YEAST), P39969. Nature of the test: SPOT array.
B1: the normalised SPOT signal, Boehringer light units (BLU); mean over the file's lines of this peptide turned out to be 30.5.
Take B2: the normalised SPOT signal, Boehringer light units (BLU); mean over the file's lines of this peptide came to 294.
Same read-out and setting: with B3 the figure was 27.9; with B4, 3.5.
The molecule B5 gave a normalised SPOT signal, Boehringer light units (BLU); mean over the file's lines of this peptide of 0.
For the molecule B6, the normalised SPOT signal, Boehringer light units (BLU); mean over the file's lines of this peptide was 25.8.
B7: the normalised SPOT signal, Boehringer light units (BLU); mean over the file's lines of this peptide turned out to be 7.5.
Same read-out and setting: for B8 the value was 21.8.
Molecule B9 showed a normalised SPOT signal, Boehringer light units (BLU); mean over the file's lines of this peptide of 16.1.
On to B10, for which the normalised SPOT signal, Boehringer light units (BLU); mean over the file's lines of this peptide was determined as 19.6.
Regarding B11, the normalised SPOT signal, Boehringer light units (BLU); mean over the file's lines of this peptide was 57.4.

The target in the next test is T3, Boi1 SH3 (BOI1_YEAST), P38041. Nature of the test: SPOT array.
B1: the normalised SPOT signal, Boehringer light units (BLU); mean over the file's lines of this peptide came to 139.
For B2, the normalised SPOT signal, Boehringer light units (BLU); mean over the file's lines of this peptide worked out at 796.
As for B3, the normalised SPOT signal, Boehringer light units (BLU); mean over the file's lines of this peptide stood at 268.
The same measure, in the same setting: with B4 the figure was -0; with B5, 51.9; with B6, 1870.
On the same count and under the same terms, for B7 the value was 126; for B8, 152.
B9 came in with a normalised SPOT signal, Boehringer light units (BLU); mean over the file's lines of this peptide of 711.
In turn, B10 had a normalised SPOT signal, Boehringer light units (BLU); mean over the file's lines of this peptide of 85.4.
For B11, the normalised SPOT signal, Boehringer light units (BLU); mean over the file's lines of this peptide came to 1070.

A further test addresses T4, Yhr016c SH3 (YSC84_YEAST), P32793. The test can be described thus: SPOT array.
In turn, B1 showed a normalised SPOT signal, Boehringer light units (BLU); mean over the file's lines of this peptide of 73.
With B2, the normalised SPOT signal, Boehringer light units (BLU); mean over the file's lines of this peptide is 554.
Take B3: the normalised SPOT signal, Boehringer light units (BLU); mean over the file's lines of this peptide is 71.1.
In the case of B4, the normalised SPOT signal, Boehringer light units (BLU); mean over the file's lines of this peptide came to 14.3.
Still for that read-out and setting: with B5 the figure was 8.4; with B6, 16.8; with B7, 28.4.
For B8, the normalised SPOT signal, Boehringer light units (BLU); mean over the file's lines of this peptide was 488.
B9 had a normalised SPOT signal, Boehringer light units (BLU); mean over the file's lines of this peptide of 32.4.
On the same count and under the same terms, for B10 the value was 19.5; for B11, 3490.

For a further test, the target named is Sho1 SH3 (SHO1_YEAST), P40073. Nature of the test: SPOT array.
Chain of Sho1 SH3 (SHO1_YEAST), P40073 (P40073 295-366): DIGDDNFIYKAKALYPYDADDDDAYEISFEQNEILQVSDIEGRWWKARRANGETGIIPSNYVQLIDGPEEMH
Take B1: the normalised SPOT signal, Boehringer light units (BLU); mean over the file's lines of this peptide is 106.
On the same count and under the same terms, for B2 the value was 661; for B3, 106; for B4, 17.1.
The molecule B5 had a normalised SPOT signal, Boehringer light units (BLU); mean over the file's lines of this peptide of 31.8.
Molecule B6 came in with a normalised SPOT signal, Boehringer light units (BLU); mean over the file's lines of this peptide of 45.5.
Take B7: the normalised SPOT signal, Boehringer light units (BLU); mean over the file's lines of this peptide was found to be 47.5.
For the molecule B8, the normalised SPOT signal, Boehringer light units (BLU); mean over the file's lines of this peptide amounted to 350.
In turn, B9 displayed a normalised SPOT signal, Boehringer light units (BLU); mean over the file's lines of this peptide of 204.
The same measure, in the same setting: for B10 the value was 26.1; for B11, 1360.

The target of another test is T5, Myo5 SH3 (MYO5_YEAST), Q04439. The test can be described thus: SPOT array.
As for B1, the normalised SPOT signal, Boehringer light units (BLU); mean over the file's lines of this peptide is 354.
Molecule B2 yielded a normalised SPOT signal, Boehringer light units (BLU); mean over the file's lines of this peptide of 348.
Same read-out and setting: for B3 the value was 300; for B4, 172; for B5, 114.
Regarding B6, the normalised SPOT signal, Boehringer light units (BLU); mean over the file's lines of this peptide worked out at 406.
In turn, B7 yielded a normalised SPOT signal, Boehringer light units (BLU); mean over the file's lines of this peptide of 33.7.
Consider B8, for which the normalised SPOT signal, Boehringer light units (BLU); mean over the file's lines of this peptide was determined as 518.
In turn, B9 had a normalised SPOT signal, Boehringer light units (BLU); mean over the file's lines of this peptide of 307.
The molecule B10 came in with a normalised SPOT signal, Boehringer light units (BLU); mean over the file's lines of this peptide of 312.
As to B11, the normalised SPOT signal, Boehringer light units (BLU); mean over the file's lines of this peptide is 554.

For another test, the target named is T6, Yfr024 SH3 (LSB3_YEAST), P43603. Nature of the test: SPOT array.
In the case of B1, the normalised SPOT signal, Boehringer light units (BLU); mean over the file's lines of this peptide worked out at 1320.
B2 came in with a normalised SPOT signal, Boehringer light units (BLU); mean over the file's lines of this peptide of 2420.
The molecule B3 showed a normalised SPOT signal, Boehringer light units (BLU); mean over the file's lines of this peptide of 862.
Regarding B4, the normalised SPOT signal, Boehringer light units (BLU); mean over the file's lines of this peptide was 154.
On to B5, for which the normalised SPOT signal, Boehringer light units (BLU); mean over the file's lines of this peptide is 38.8.
B6: the normalised SPOT signal, Boehringer light units (BLU); mean over the file's lines of this peptide came to 47.5.
B7 registered a normalised SPOT signal, Boehringer light units (BLU); mean over the file's lines of this peptide of 168.
B8 displayed a normalised SPOT signal, Boehringer light units (BLU); mean over the file's lines of this peptide of 3640.
As to B9, the normalised SPOT signal, Boehringer light units (BLU); mean over the file's lines of this peptide was 255.
As for B10, the normalised SPOT signal, Boehringer light units (BLU); mean over the file's lines of this peptide was 38.8.
With B11, the normalised SPOT signal, Boehringer light units (BLU); mean over the file's lines of this peptide came to 1290.
